Measurements reported in patent US5763284A, “Methods for peptide synthesis and purification” (Dade International Inc., priority 1995, dated 1998).

What was measured:
[1] = test system: D011 cells; experiment: Loading of A20 APC and activation of D011 T cells, IL-2 release ELISA; type: cell-based, murine; conditions: DO11 and A20 cells, 24 hours
Experimental: The efficacy of a fusion polypeptide of the invention to load APCs and activate T cells was tested. A penI:Ova fusion polypeptide (i.e., a fusion polypeptide containing the penI protein linked to an Ova target peptide) was employed as well as other materials. Three independent experiments were performed utilizing A20 APC and the D011 T cell […] cell line. D011 cells are specifically responsive to Ova loaded major histocompability complex class II (MHCII) molecules presented by A20 APCs. A20 cells were loaded with 5 μg purified penI:Ova fusion polypeptide or 5 μg synthetic Ova peptide (positive control synthesized by Mimetics, Chiron Corp.) for 1 hour. 1×10^5 D011 cells were added and incubated with the loaded A20 cells for 24 hours. The degree of activation of D011 cells was determined by the release of Interleukin 2 (IL-2) into the culture medium. After 24 hours of incubation supernatants were collected and analyzed in an ELISA format for IL-2 (using two anti-IL2 antibodies from Pharmacia).
The following Table summarizes the results of the three experiments and includes several negative controls. One of these controls is a PenI:Ova fusion protein containing the hen egg lysozyme (HEL) peptide preceded by the Factor Xa cleavage recognition site IEGRNLCNIPCSALLSS (SEQ ID NO: 55) and therefore should not stimulate D011 cells.

[2] = test system: TA1 antibody; experiment: BIAcore surface plasmon resonance binding of PenI:C9 muteins to immobilized TA1; design: species or system mouse; conditions: 30 μg/mL injected; relative response of wild type PenI:C9 set to 100%
Excerpt: In order to analyze the different binding of the different PenI:C9 muteins to the TA1 antibody (TA1 was raised from a mouse that had been immunized with F1.2-C9 KLH by standard procedures; F1.2-C9 is the purified factor Xa cleavage product of prothrombin), a biosensor system using surface plasmon resonance detection (BIAcore, Pharmacia Biosensor) has been used. This system records the binding of the antigen to the immobilized TA1 in real time.
TA1 has been chemically immobilized onto the carboxymethylated dextran matrix of the sensor chip (CM5) using the amine coupling kit and the method provided by the manufacturer (Pharmacia Biosensor). For this purpose TA1 was diluted to 57 μg/mL in 10 mM Na-acetate buffer pH4. After activation of the sensor chip with 30 μl of a 1:1 mixture of 11.5 mg/mL N-hydroxysuccinimide (NHS) and 75 mg/ml N-ethyl-N'-(dimethylaminopropyl) carbodiimide (EDC) 5 μL of the TA1 solution was injected at a flow rate of 3 μL/min. […]
Each PenI:C9 and the native PenI protein was injected according to this program and a relative response in RU which represent the amount of penI:C9 mutein bound, was calculated by subtracting the RU of report point 1. from report point 2. Percent of binding was then calculated by setting the relative response of the wild type to 100%. […]

B1: PenI: penI repressor protein of Bacillus licheniformis without fusion peptide; negative control (protein, UniProt P06555 1-128, looked up)
Penicillinase repressor: MKKIPQISDAELEVMKVIWKHSSINTNEVIKELSKTSTWSPKTIQTMLLRLIKKGALNHHKEGRVFVYTPNIDESDYIEVKSHSFLNRFYNGTLNSMVLNFLENDQLSGEEINELYQILEEHKNRKKE
- IL-2 release ([1]; Experiment 1): 0 pg/mL
- IL-2 release ([1]; Experiment 2): 0 pg/mL
- IL-2 release ([1]; Experiment 3): 0 pg/mL
- Percent of binding to TA1 [2]: < 5%
